Experimental data taken from the supplement of paper PMC11316812.
± gives the standard deviation of the averaged measurements.

Tests used:
hTERT-HMEC = assay: percentage of EdU-negative (G0-arrested) nuclei per well, 72 h; higher = more G0 arrest; settings: reference: sequence is the full UniProt precursor, the tested protein was the secreted form or ectodomain
MCF7 = assay: as above; settings: reference: sequence is the full UniProt precursor, the tested protein was the secreted form or ectodomain
[1] = protein concentration 0.0257143 µM
[2] = protein concentration 0.257143 µM
[3] = protein concentration 0.02225 µM
[4] = protein concentration 0.2225 µM
[5] = protein concentration 0.0075 µM
[6] = protein concentration 0.0231575 µM
[7] = protein concentration 0.231575 µM
[8] = protein concentration 0.013725 µM
[9] = protein concentration 0.13725 µM
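Also: secreted proteins added to cultured cells, EdU pulse at the end, nuclei found by Hoechst imaging, EdU status from nuclear versus surrounding ring intensity ratio, PBS as neutral control.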

MYLSICCCFLLWAPALTLKNLNYSVPEEQGAGTVIGNIGRDARLQPGLPPAERGGGGRSKSGSYRVLENSAPHLLDVDADSGLLYTKQRIDRESLCRHNAKCQLSLEVFANDKEICMIKVEIQDINDNAPSFSSDQIEMDISENAAPGTRFPLTSAHDPDAGENGLRTYLLTRDDHGLFGLDVKSRGDGTKFPELVIQKALDREQQNHHTLVLTALDGGEPPRSATVQINVKVIDSNDNSPVFEAPSYLVELPENAPLGTVVIDLNATDADEGPNGEVLYSFSSYVPDRVRELFSIDPKTGLIRVKGNLDYEENGMLEIDVQARDLGPNPIPAHCKVTVKLIDRNDNAPSIGFVSVRQGALSEAAPPGTVIALVRVTDRDSGKNGQLQCRVLGGGGTGGGGGLGGPGGSVPFKLEENYDNFYTVVTDRPLDRETQDEYNVTIVARDGGSPPLNSTKSFAIKILDENDNPPRFTKGLYVLQVHENNIPGEYLGSVLAQDPDLGQNGTVSYSILPSHIGDVSIYTYVSVNPTNGAIYALRSFNFEQTKAFEFKVLAKDSGAPAHLESNATVRVTVLDVNDNAPVIVLPTLQNDTAELQVPRNAGLGYLVSTVRALDSDFGESGRLTYEIVDGNDDHLFEIDPSSGEIRTLHPFWEDVTPVVELVVKVTDHGKPTLSAVAKLIIRSVSGSLPEGVPRVNGEQHHWDMSLPLIVTLSTISIILLAAMITIAVKCKRENKEIRTYNCRIAEYSHPQLGGGKGKKKKINKNDIMLVQSEVEERNAMNVMNVVSSPSLATSPMYFDYQTRLPLSSPRSEVMYLKPASNNLTVPQGHAGCHTSFTGQGTNASETPATRMSIIQTDNFPAEPNYMGSRQQFVQSSSTFKDPERASLRDSGHGDSDQADSDQDTNKGSCCDMSVREALKMKTTSTKSQPLEQEPEECVNCTDECRVLGHSDRCWMPQFPAANQAENADYRTNLFVPTVEANVETETYETVNPTGKKTFCTFGKDKREHTILIANVKPYLKAKRALSPLLQEVPSASSSPTKACIEPCTSTKGSLDGCEAKPGALAEASSQYLPTDSQYLSPSKQPRDPPFMASDQMARVFADVHSRASRDSSEMGAVLEQLDHPNRDLGRESVDAEEVVREIDKLLQDCRGNDPVAVRK
percentage of EdU-negative (hTERT-HMEC; [1]): 4.62 ± 0.4% | percentage of EdU-negative (hTERT-HMEC; [2]): 7.27 ± 0.33% | percentage of EdU-negative (MCF7; [1]): 23.2 ± 3% | percentage of EdU-negative (MCF7; [2]): 26.6 ± 0.28%

MYLSRFLSIHALWVTVSSVMQPYPLVWGHYDLCKTQIYTEEGKVWDYMACQPESTDMTKYLKVKLDPPDITCGDPPETFCAMGNPYMCNNECDASTPELAHPPELMFDFEGRHPSTFWQSATWKEYPKPLQVNITLSWSKTIELTDNIVITFESGRPDQMILEKSLDYGRTWQPYQYYATDCLDAFHMDPKSVKDLSQHTVLEIICTEEYSTGYTTNSKIIHFEIKDRFAFFAGPRLRNMASLYGQLDTTKKLRDFFTVTDLRIRLLRPAVGEIFVDELHLARYFYAISDIKVRGRCKCNLHATVCVYDNSKLTCECEHNTTGPDCGKCKKNYQGRPWSPGSYLPIPKGTANTCIPSISSIGNCECFGHSNRCSYIDLLNTVICVSCKHNTRGQHCELCRLGYFRNASAQLDDENVCIECYCNPLGSIHDRCNGSGFCECKTGTTGPKCDECLPGNSWHYGCQPNVCDNELLHCQNGGTCHNNVRCLCPAAYTGILCEKLRCEEAGSCGSDSGQGAPPHGSPALLLLTTLLGTASPLVF [Q9Y2I2]
percentage of EdU-negative (hTERT-HMEC; [3]): 5.38 ± 0.34% | percentage of EdU-negative (hTERT-HMEC; [4]): 5.84 ± 1.4% | percentage of EdU-negative (MCF7; [3]): 26.06 ± 0.23% | percentage of EdU-negative (MCF7; [4]): 28.6 ± 3.7%

MYLVAGDRGLAGCGHLLVSLLGLLLLLARSGTRALVCLPCDESKCEEPRNCPGSIVQGVCGCCYTCASQRNESCGGTFGIYGTCDRGLRCVIRPPLNGDSLTEYEAGVCEDENWTDDQLLGFKPCNENLIAGCNIINGKCECNTIRTCSNPFEFPSQDMCLSALKRIEEEKPDCSKARCEVQFSPRCPEDSVLIEGYAPPGECCPLPSRCVCNPAGCLRKVCQPGNLNILVSKASGKPGECCDLYECKPVFGVDCRTVECPPVQQTACPPDSYETQVRLTADGCCTLPTRCECLSGLCGFPVCEVGSTPRIVSRGDGTPGKCCDVFECVNDTKPACVFNNVEYYDGDMFRMDNCRFCRCQGGVAICFTAQCGEINCERYYVPEGECCPVCEDPVYPFNNPAGCYANGLILAHGDRWREDDCTFCQCVNGERHCVATVCGQTCTNPVKVPGECCPVCEEPTIITVDPPACGELSNCTLTGKDCINGFKRDHNGCRTCQCINTEELCSERKQGCTLNCPFGFLTDAQNCEICECRPRPKKCRPIICDKYCPLGLLKNKHGCDICRCKKCPELSCSKICPLGFQQDSHGCLICKCREASASAGPPILSGTCLTVDGHHHKNEESWHDGCRECYCLNGREMCALITCPVPACGNPTIHPGQCCPSCADDFVVQKPELSTPSICHAPGGEYFVEGETWNIDSCTQCTCHSGRVLCETEVCPPLLCQNPSRTQDSCCPQCTDQPFRPSLSRNNSVPNYCKNDEGDIFLAAESWKPDVCTSCICIDSVISCFSESCPSVSCERPVLRKGQCCPYCIEDTIPKKVVCHFSGKAYADEERWDLDSCTHCYCLQGQTLCSTVSCPPLPCVEPINVEGSCCPMCPEMYVPEPTNIPIEKTNHRGEVDLEVPLWPTPSENDIVHLPRDMGHLQVDYRDNRLHPSEDSSLDSIASVVVPIIICLSIIIAFLFINQKKQWIPLLCWYRTPTKPSSLNNQLVSVDCKKGTRVQVDSSQRMLRIAEPDARFSGFYSMQKQNHLQADNFYQTV [Q9NZV1]
percentage of EdU-negative (hTERT-HMEC; [5]): 4.66 ± 0.59% | percentage of EdU-negative (hTERT-HMEC; protein concentration 0.075 µM): 5.81 ± 1.6% | percentage of EdU-negative (MCF7; [5]): 24.3 ± 2.8% | percentage of EdU-negative (MCF7; protein concentration 0.075 µM): 25.9 ± 0.87%

MYREWVVVNVFMMLYVQLVQGSSNEHGPVKRSSQSTLERSEQQIRAASSLEELLRITHSEDWKLWRCRLRLKSFTSMDSRSASHRSTRFAATFYDIETLKVIDEEWQRTQCSPRETCVEVASELGKSTNTFFKPPCVNVFRCGGCCNEESLICMNTSTSYISKQLFEISVPLTSVPELVPVKVANHTGCKCLPTAPRHPYSIIRRSIQIPEEDRCSHSKKLCPIDMLWDSNKCKCVLQEENPLAGTEDHSHLQEPALCGPHMMFDEDRCECVCKTPCPKDLIQHPKNCSCFECKESLETCCQKHKLFHPDTCSCEDRCPFHTRPCASGKTACAKHCRFPKEKRAAQGPHSRKNP
percentage of EdU-negative (hTERT-HMEC; [6]): 4.71 ± 0.18% | percentage of EdU-negative (hTERT-HMEC; [7]): 7.16 ± 1.6% | percentage of EdU-negative (MCF7; [6]): 27.2 ± 0.62% | percentage of EdU-negative (MCF7; [7]): 28.82 ± 0.28%

MYRHGISSQRSWPLWTTIFIFLGVAAILGVTIGLLVHFLAVEKTYYYQGDFHISGVTYNDNCENAASQASTNLSKDIETKMLNAFQNSSIYKEYVKSEVIKLLPNANGSNVQLQLKFKFPPAEGVSMRTKIKAKLHQMLKNNMASWNAVPASIKLMEISKAASEMLTNNCCGRQVANSIITGNKIVNGKSSLEGAWPWQASMQWKGRHYCGASLISSRWLLSAAHCFAKKNNSKDWTVNFGIVVNKPYMTRKVQNIIFHENYSSPGLHDDIALVQLAEEVSFTEYIRKICLPEAKMKLSENDNVVVTGWGTLYMNGSFPVILQEDFLKIIDNKICNASYAYSGFVTDTMLCAGFMSGEADACQNDSGGPLAYPDSRNIWHLVGIVSWGDGCGKKNKPGVYTRVTSYRNWITSKTGL [Q86T26]
percentage of EdU-negative (hTERT-HMEC; [1]): 5.22 ± 1.8% | percentage of EdU-negative (hTERT-HMEC; [2]): 5.69 ± 1% | percentage of EdU-negative (MCF7; [1]): 23.6 ± 1.4% | percentage of EdU-negative (MCF7; [2]): 25.2 ± 1.9%

MYSAPSACTCLCLHFLLLCFQVQVLVAEENVDFRIHVENQTRARDDVSRKQLRLYQLYSRTSGKHIQVLGRRISARGEDGDKYAQLLVETDTFGSQVRIKGKETEFYLCMNRKGKLVGKPDGTSKECVFIEKVLENNYTALMSAKYSGWYVGFTKKGRPRKGPKTRENQQDVHFMKRYPKGQPELQKPFKYTTVTKRSRRIRPTHPA
percentage of EdU-negative (hTERT-HMEC; [8]): 4.7 ± 1.1% | percentage of EdU-negative (hTERT-HMEC; [9]): 5.41 ± 0.5% | percentage of EdU-negative (MCF7; [8]): 24.26 ± 0.046% | percentage of EdU-negative (MCF7; [9]): 22.8 ± 0.92%
